The assay has as its target human CD73 on human cell lines (human) (UniProt P21589). Kind of assay: cell-based or functional assay.

These results are taken from patent US20200299400A1.

Sequence of human CD73 on human cell lines (human) (P21589 27-549): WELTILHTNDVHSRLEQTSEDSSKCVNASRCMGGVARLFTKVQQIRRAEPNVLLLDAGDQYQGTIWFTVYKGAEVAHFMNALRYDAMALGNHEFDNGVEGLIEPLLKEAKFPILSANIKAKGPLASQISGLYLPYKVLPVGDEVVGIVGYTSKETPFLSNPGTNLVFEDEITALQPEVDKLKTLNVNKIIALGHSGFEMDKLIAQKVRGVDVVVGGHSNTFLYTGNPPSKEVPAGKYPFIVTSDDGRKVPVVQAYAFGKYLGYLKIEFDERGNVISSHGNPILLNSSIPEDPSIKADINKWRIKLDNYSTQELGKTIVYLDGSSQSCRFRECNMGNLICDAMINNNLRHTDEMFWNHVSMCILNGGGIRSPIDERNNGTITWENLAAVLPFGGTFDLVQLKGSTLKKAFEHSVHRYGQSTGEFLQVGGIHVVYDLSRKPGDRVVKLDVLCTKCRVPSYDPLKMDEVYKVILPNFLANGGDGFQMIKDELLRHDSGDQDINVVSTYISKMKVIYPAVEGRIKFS

B1: mAb-CD73.4-IgG2 (antibody, V domains shown, not shown: a dimerising Fc or GST)
VH: QVQLVESGGGVVQPGRSLRLSCAASGFTFSNYGMHWVRQAPGKGLEWVAVILYDGSNKYYPDSVKGRFTISRDNSKNTLYLQMNSLRAEDTAVYYCARGGSSWYPDSFDIWGQGTMVTVSS
VL: DIQMTQSPSSLSASVGDRVTITCRASQGISSWLAWYQQKPEKAPKSLIYAASSLQSGVPSRFSGSGSGTDFTLTISSLQPEDFATYYCQQYNSYPLTFGGGTKVEIKR
Regarding B1, the internalization T1/2, Calu6 came out at 36 min; the internalization T1/2, NCI-H292 is 16.6 min; the internalization Ymax, Calu6 was determined as 75.6%; the internalization Ymax, NCI-H292 is 78.4%.
